Tests used:
[1] = target: putative IBC-1 receptor on G361 melanoma cells, moderately high affinity binding site; assay: Scatchard analysis of AP-IBC-1 binding to G361 melanoma cells (bound AP activity)
[2] = target: putative IBC-1 receptor on G361 melanoma cells, much lower affinity binding site; assay: as above

Work on “alkaline phosphatase-IBC-1 (AP-IBC-1) fusion protein (from UniProt P81605 20-110) (ligand)” yielded a Kd [1] of 37.5 nM, a binding sites/cell (binding sites/cell) [1] of 17000 and a Kd [2] of 360 nM. It also gave a binding sites/cell (binding sites/cell) [2] of 350000.
